Test results taken from paper PMC9590162.
“And” between values parts separate entries of the source, which are not always exact repeats. Equal entries are not always repeated.

Biological target: human nesfatin-1 (human) (UniProt P80303)
Assay: AUC; SV-AUC, 20 °C, 50 000 rpm, buffer B with 300 or 500 μM ZnCl2; hN1 at 0.7, 1.0, 1.3 mg/ml; monomer to dimer

percent of the two main sedimenting species in the larger (dimer) fraction: 58% and 45% and 51% | stoichiometry N: 2
Substance: human nesfatin-1 (from UniProt P80303 25-106) (peptide)
